Data as given in the supplement of paper PMC9170038.

Tested on: K4 kissing-loop RNA reporter
Assay: apparent KD of K4 kissing-loop reporter; higher = weaker reporter binding
Settings: Eterna round: R107
Experimental: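 RNA-MaP round R107: designed RNA switches with theophylline, tryptophan, arginine or FMN aptamers are transcribed on-chip within common flanks. They are titrated with a labelled K4 kissing-loop RNA reporter in RNA-MaP buffer (100 mM Tris pH 7.5, 80 mM KCl, 4 mM MgCl2), without ligand or with the indicated ligand. Median apparent KD per design.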

[1] = input ligand: theophylline 20 uM
[2] = input ligand: tryptophan 2.4 mM
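Note: bound reporter read as fluorescence of individual clusters on recovered sequencing chips by microscopy, with normalized cluster intensities fitted with a binding model.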

| Sequence | apparent KD of K4 kissing-loop reporter (input ligand: FMN 200 uM) | apparent KD of K4 kissing-loop reporter (input ligand: arginine 13.2 mM) | apparent KD of K4 kissing-loop reporter (input ligand: none) | apparent KD of K4 kissing-loop reporter [1] | apparent KD of K4 kissing-loop reporter [2] |
| --- | --- | --- | --- | --- | --- |
| ACGACGCAUAGUGAUACCAGCUAUAUAUGAGUGAUGUUCUACCUAAAAUGGUAAUAAUUUAGCCCUUGGCAGCACUAUGCGUCAG [KL-SSTheoB4] | 380 nM | 456 nM | 377 nM | 562 nM | 262 nM |
| UUUAUAAUGUCGGCCGCCACUGGAUUAAUAUUUGUAUAAUCUAGUUCUGAGUGAUGUUUAGAGUCCAGGACCGGGACAUUUGUUA [#10 K4 Tryptophan B Exclusion] | 701 nM | 515 nM | 651 nM | 788 nM | 520 nM |
| CGCGCCCAGCCGGAUACCAGUGACCCGCUGGGAACCGCGGGCCCAGAGUGAUGUUCGGGACACCCUUGGCAGCCGCCUGGGCGGC [#2 Same State - Theophylline B Attempt #9 (HarryS)] | 1370 nM | 229 nM | 999 nM | 717 nM | 766 nM |
| GUUACUUCAGAAGGAUAUUAGUAAACAACACGGUAGUGAUGUUACCGUUAUCAAGCCCGGCUUCACUAAGAAGGUCUCCACCGCG [theeternabot_sameState_KL_FMN_B_23] | 52 nM | 67.9 nM | 52.9 nM | 70 nM | 54.1 nM |
| UAGAGAUCGAGAAGGAGCGAGAAAGCUAGUACAUAUGUACUAGCAAAGCAGUGAUGUUGCACUCAGGUAGGUCGCUCGAUCUCAU [AK1.1 SS Arginine B] | 337 nM | 267 nM | 366 nM | 432 nM | 305 nM |
| UUUGAAAUGACUGAUACCAGUGAAAAUAUAUGUAGUGAUGUUAUAUACUAAUUUAAUAAGCGCCCUUGGCAGCAGUAUGAAUUAU [AstrosExc-theB#16] | 763 nM | 565 nM | 927 nM | 527 nM | 560 nM |
| AGGGAUGUUAAAGGAUAUAGAAAGUGAUGUUAGAAAGUGAGUGAUGUUGAUGUUAGUGAUGUUAUGUUAGAAGGUUAACAAAACG [a] | 256 nM | 149 nM | 211 nM | 192 nM | 161 nM |
| UUUAUUAAGACGGCCGCCACUGAAUUAGAGUGAUGUUCUAAAAUUUUUAAUUUUUUUUUUUUCAGCAGGACCGGGUCAAUUAUUA [JR_SSTryptoB_Sub012] | 128 nM | 95.3 nM | 116 nM | 142 nM | 94.5 nM |
| UAUCGAGUGAUGUUCGAUGUAGUUCAUUCAGAGGAUAUAGGAUGGGCUAGAAGGCUGAAAAGUGCUUCGAGUGAUGUUCGAAGAU [Exclusion FMN A GF 6] | 64.6 nM | 40.9 nM | 53.7 nM | 40.9 nM | 44.7 nM |
| ACACUUUACGUAGGAUAUGCGACGAGUGAUGUUCGUCAGGCGGCUCUAGAUUAAACAAGCCGCCUAGCAGAAGGACGGGCAGUGU [Teaanso] | 154 nM | 145 nM | 164 nM | 160 nM | 163 nM |
| AAUAAGGAGUGAUGUUCCAAGUGAUGUUAACGAGGACCGGUACGGCCGCCACUCGAUACGGCCGGAAAAUAAAAUAAAAUAAAAU [Same State - Tryptophan A (Freestyle 1)] | 103 nM | 119 nM | 134 nM | 120 nM | 124 nM |
| AGUAGAGCAUCAGAUACCAGACAGAACUGAUGGUAAGGAGUGAUGUUCCUUAAUCAGCUUGUCCCUUGGCAGCUGAUAGUAGUCA [#14 K4 Theophylline B Same State] | 388 nM | 417 nM | 431 nM | 348 nM | 383 nM |
| CCGCUGUACUGCAUUAAGUGAUGUUUAGUGCAGGAUAUCUGGAAACAGAGAAGGGCAUGUACUCGACUUAGCCACUACAGCGGUU | 221 nM | 123 nM | 142 nM | 119 nM | 129 nM |
| UGAUAGGACAGAAGGAGCGGGCUAGUCAAAGACUAGCAAACGUUAAUAACAGGAGUGAUGUUCCAGGUAGGUCGCUGUCCUAUCU [ArgBX 25 #SwitchBubble #StaticStem] | 136 nM | 120 nM | 143 nM | 138 nM | 120 nM |
| UUUUACGAGUGAUGUUCGUAAUGUAAUAGUUAGGAUAUCGUUUUUUCGAGAAGGAACUUCGAAGUGAUACGAAAGUAUCGCUUCG [FMN A 9] | 127 nM | 160 nM | 184 nM | 154 nM | 159 nM |
| UGUAUGGACUGAAGGAGCGGUAGAUAAACUGAGUGAUGUUCGGCAGAUAAAGGCGCAAGCCACCAGGUAGGUCGCAGUCCAUACU [KL-SSArg B3] | 381 nM | 274 nM | 391 nM | 408 nM | 342 nM |
| ACGGGCGGCUGAAGGAGCGGGCGGGCCCGAGUGAUGUUCGGGUGGGCCGUGAGGCCCGGAGCCCAGGUAGGUCGCGGUUCCGUCC [#2 Same State - Arginine B Attempt #21 (HarryS)] | 135 nM | 104 nM | 182 nM | 171 nM | 164 nM |
| CCGAAGAACCAGUGAUGUUGGUUGACUAGACAGGAUAUGAGCAACAUCAGAAGGGUCUGGCUUCGGGAGAGAGUCGCGCUGACCU [Anditebier] | 208 nM | 350 nM | 388 nM | 28.7 nM | 453 nM |
| CGAGUGAUGUUCGAAGAGUUGUUGAGCGAUACCAGCCAGGAAACUGGCCCUUGGCAGCGUAAUAAAUAAAUAAAUAAAUGAUCAC [whbob_Ex_Theo_A_th61] | 364 nM | 464 nM | 410 nM | 635 nM | 333 nM |
| UUGAUAUGAUAAUAUCCUGUUUGAUAAAGACAGGAUAUAGAAAAUACUAGAAGGGUCAUUAUAUGCAGUGAUGUUGCAAAUAAGU [Exclusion FMN A Gf 23] | 42.2 nM | 67.3 nM | 45.7 nM | 66.2 nM | 37.6 nM |
| CCAUCGCUAUUCGAUACCAGCUACUUAGUGAUGUUAAGUUUAAAUCCACUGUAGGUGGAAAGCCCUUGGCAGCGAAUAGUGAUGG [Theophylline B K4 24] | 315 nM | 274 nM | 306 nM | 157 nM | 245 nM |

| Sequence | apparent KD of K4 kissing-loop reporter (input ligand: FMN 200 uM) | apparent KD of K4 kissing-loop reporter (input ligand: arginine 13.2 mM) | apparent KD of K4 kissing-loop reporter (input ligand: none) | apparent KD of K4 kissing-loop reporter [1] | apparent KD of K4 kissing-loop reporter [2] |
| --- | --- | --- | --- | --- | --- |
| UUAUAUAAUUUGUCUUUUUUAACAUUAAGUCAGGAUAUCGUAUAUUCGAGAAGGGACACAUGCUAGUGAUGUUAGCUAUUUCUUU [JR_ExcFMNA_Sub016] | 31.7 nM | 55.3 nM | 30.4 nM | 43 nM | 30.6 nM |
| ACGUAGUUCUAGGAUACCAGCCAAGAAGCCAGGACAAAAGUCCUGGCUGCCAGUGAUGUUGGCCCUUGGCAGCCUAGAACUACGA [Omei KL Theo B Exc B v10] | 128 nM | 113 nM | 121 nM | 109 nM | 121 nM |
| GUACGCUUCCGAGUGAUGUUCGGUAAUAGUUAGGAUAUCGUUUUUUCGAGAAGGAACUGAAUGAGGAAACUCGUUCGAAGUGUAC [FMN A 16] | 395 nM | 266 nM | 380 nM | 424 nM | 266 nM |
| GGCAGUGAUGUUGCCAGUGGCAGAUGAGAAGGAGCGUGGUGAGACACAGGUAGGUCGCUCAUUGAAAUUGCUGUCACUAAAAUGC [#5] | 289 nM | 322 nM | 266 nM | 234 nM | 215 nM |
| UGAUUUAACUGAAGGAGCGGCAAUAGAGAAGGAAAUAUAGUGAUGUUAUAUAAGAGAGAGAGCCAGGUAGGUCGCAGAGGGAGGA [ExArgB.F] | 181 nM | 128 nM | 137 nM | 171 nM | 151 nM |
| AUUAAUUUCAGAGGAUAUCGUAUUUAUAUUUUAUCUUUCCAUAUUUGCAGUGAUGUUGCAUUAAUUCGAGAAGGCUGAUUUAUAA [JR_ExcFMNB_Sub008] | 79 nM | 84 nM | 61.5 nM | 75.1 nM | 55.5 nM |
| AAGUGAUGUUGUAGUGAUGUUGUGAUGUUGCAGGAUAUAUAGUGAUGUAGAAGGGUAUGUACAGUUUUUUUUUUUGAGUGUUGAU [sscsmullin] | 79.7 nM | 36 nM | 62.2 nM | 47.8 nM | 66.2 nM |
| AAUAAACAGUCGGCCGCCACUUCAAUAGACUUAUUAUUGAAUGGUGUAGUUCUUCAGUGAUGUUGAAGGACCGGGACUUUCGCGC [Isesator] | 157 nM | 134 nM | 145 nM | 139 nM | 158 nM |
| UGAUAGGACAGAAGGAGCGAGGAGUGAUGUUCCUCAAAAGGUCUAGCAAAGCUAGACCCUCCUCAGGUAGGUCGCUGUCCUAUCU [ArgBX 1 #Palindromic #SwitchBubble #StaticStem] | 174 nM | 162 nM | 167 nM | 232 nM | 158 nM |
| UGAUACCAGACGGCCGCCACUGGGACCGGGAGUGAUGUUCCAAAUAAAAGAAACUCGGCCGCCACUAGGACCGGGUCUGGUAUCU [TrypBX 30 #DoubleAptamer #SwitchBubble] | 622 nM | 278 nM | 379 nM | 479 nM | 110 nM |
| CAACCCUGCUUUUUCGAGUUUUAGGGAUGACGAGGACCGGUACGGCCGCCACUCGACUACACUGUUCAGUGAUGUUGAACGGCGG [Teveza] | 165 nM | 60 nM | 116 nM | 148 nM | 267 nM |
| UGUACCGAUUCAGGAUAUGUCGUCGAAAGACGAAAUGGAGUGAUGUUCCUUAAACUGCGAAAGCAGACAGAAGGGAAUUGGUACU [FmnBS 29 U9+A77] | 146 nM | 285 nM | 300 nM | 318 nM | 284 nM |
| AGCUCAGAGUGACUCGAUAAGAGUCACAAACGAGGACCGGUACGGCCGCCACUCGAAAUAACGAGAGUGAUGUUUUCGCUGAGCA [FiskerMod 6 - Jieux - Same State Tryptophan A] | 935 nM | 630 nM | 857 nM | 660 nM | 541 nM |
| GGAGAGCGGAACGAUACCAGCUGCGGCACGCACCGGAAGUUAAGCCAGUGAUGUUGGCGGAGCCCUUGGCAGCGUGCGCGCGUCC [Abeusma] | 122 nM | 93.3 nM | 104 nM | 145 nM | 105 nM |
| ACUGGGUUGACGAAAGUCAACAAAUGAGAAGGAGCGCACGAAAGUGCAGGUAGGUCGCUCAUUCCAGUGAUGUUGGAUCACCAGA [#SwitchBubble 19 #K4Late] | 531 nM | 456 nM | 836 nM | 831 nM | 464 nM |
| UUAGAAGUAUACUUCAAGAGCUAUACUGAUACCAGAGUCAAUUGACUCCCUUGGCAGCGGAUCGAGUGAUGUUCGUAAGCUCAUU [AK4 SS Theophylline A] | 464 nM | 456 nM | 583 nM | 521 nM | 502 nM |
| GCCGAAUCGUUGGGCUCAGUGAUGUUGAUCCGAGGACCGGUACGGCCGCCACUCGAAUGGCAGUGACCACACUGGUAACGUUAAA [theeternabot_exclusion_KL_Trp_A_43] | 573 nM | 490 nM | 699 nM | 575 nM | 261 nM |
| UGAUACCAGGCGGCCGCCACUCCCGCAGGUCAAAGACCUGCGAAGCUGGUUCUUCAGUGAUGUUGGAGGACCGGGCCUGGUAUCU [FiskerMod 25 - Jieux - Exclusion - Tryptophan B] | 253 nM | 211 nM | 236 nM | 232 nM | 494 nM |
| UGACAUUGCUCAGAUACCAGACAAGAGGAUCACCCUUGUGCCAACGUACAAAUAAUAAAUGUCCCUUGGCAGCUGAGCAAUGUCU [TheoBX 15] | 64.1 nM | 31.9 nM | 58.2 nM | 92.8 nM | 47.5 nM |
| ACAUCGGUUGAGAGUGAUGUUCCUUGUGUUCGAGGACCGGUACGGCCGCCACUCGGGUAGAAAAUAAAAGAUGUGUUUGAUUUUU [BDazzled - #15 SS Tryptophan A] | 260 nM | 42.1 nM | 143 nM | 275 nM | 223 nM |
| AAACAUUGGUCUGAUACCAGCUGAUCGGAAACGAUCAUGCUGGAGUGAUGUUCCAGGAAAAGCCCUUGGCAGCAGACCGAUGAAA [MAT - Same State Theophlline B - Mod of Eli - D28] | 94.7 nM | 103 nM | 75.6 nM | 184 nM | 137 nM |
